The values that follow come from paper PMC12700558, “Aggregation shifts amyloid-β peptides from synaptogenic to synaptotoxic” (The Journal of Clinical Investigation, 2025).

The test system of series [1] is human neurons. The experiment in a line: NLS-TdTomato cytotoxicity assay (cytoplasmic leakage of NLS-TdTomato). To be noted: 5% DMSO or 200 μM hydrogen peroxide, each applied for 4 hours, DIV30. The method, then: The MTT assay employs yellow tetrazolium dye that is reduced to a purple formazan crystal by viable cells with active metabolism ([21]). Because it measures metabolic activity in all cells, this assay serves as a broad cytotoxicity read out for the entire glia/neuron coculture system. The amount of formazan produced is then measured because it is directly proportional to the number of viable cells ([21]) (Figure 1B and Supplemental Figure 1A). The nuclear localization TdTomato assay, conversely, enables monitoring of cellular stress by tracking the localization of fluorescent TdTomato fused to a nuclear localization signal. Under healthy conditions, the nuclear localization signal directs the NLS-TdTomato to the nucleus. When toxicity in a cell causes a reduction in ATP levels, NLS-TdTomato leaks out of the nucleus into the cytoplasm, which we scored as an index of toxicity (Figure 1, C and D, and Supplemental Figure 1, B–D). Because the reporter is expressed only in neurons, this assay specifically assesses neurotoxicity within the coculture. We developed this assay because it can be performed on live cells and reflects decreases in ATP levels in these cells. […]
To assess neuronal cytotoxicity induced by Aβ peptides, we employed a novel Td-Tomato cytotoxicity assay that we developed. […] Neurons displaying cytoplasmic Td-Tomato were counted as indicators of cytotoxicity. […]

For series [2], the system named is human neurons cocultured with mouse glia. In words: Aβ42 fractionation experiment, MTT assay of supernatant and pellet. The class given is cell-based. To be noted: fractions of Aβ42 preaggregated at 37°C for 24 hours, 20,000g 15 minutes; 0.2 μM chronic, DIV45. The method, then: Aggregation mixtures were centrifuged at 20,000g for 15 minutes at 4°C. The supernatant (enriched in monomer, small oligomers and residual larger species) was removed without disturbing the pellet. The pellet (large aggregates and high-molecular-weight oligomers) was resuspended in DMSO to the original volume. Supernatant and the resuspended pellet were administered to neurons, independently, at the concentration of 0.2 μM following the same protocol of administration used in this study (Figure 1A) and described above.
For orientation: Tetrazolium assays rely on reduction of a dye to a coloured formazan, in cell work by metabolically active cells.

Regarding `OO` [hydrogen peroxide], the “Validation of the NLS-TdTomato assay: nuclear-to-cytoplasmic shift of NLS-TdTomato (in words)” value in series [1] was “rapidly induced the nuclear-to-cytoplasmic shift of NLS-TdTomato”. Turning to “pellet: pellet of centrifuged preaggregated Aβ42, large aggregates and high-molecular-weight oligomers, resuspended in DMSO”, the “Loss of viability, MTT assay (in words)” value in series [2] is listed as “same loss of viability”. Regarding “supernatant: supernatant of centrifuged preaggregated Aβ42, enriched in monomer, small oligomers and residual larger species”, the “Loss of viability, MTT assay (in words)” value in series [2] is given as “same loss of viability”.
